Tested on: Escherichia coli TOP10
Test: shrunken log2 fold change of peptide-encoding DNA abundance (4.5 h post-induction vs induction); higher = less antimicrobial activity (less host growth inhibition)
Settings: time post-induction: 4.5 h; library: site-saturation at positions 5, 18, 19, 20
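Further: peptides expressed intracellularly from a pBAD plasmid library in pooled LB shake-flask culture, induced with 0.3% L-arabinose, DNA abundance read by NGS, three biological replicates, DESeq2 with apeglm shrinkage.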

Row | Sequence | shrunken log2 fold change
1 | RRIRDRPPRLPRPRPRPMEVPRP | 0.142
2 | RRIRDRPPRLPRPRPRPMGYPRP | -0.115
3 | RRIRDRPPRLPRPRPRPMKDPRP | -0.0395
4 | RRIRDRPPRLPRPRPRPMKIPRP | -0.0804
5 | RRIRDRPPRLPRPRPRPMMFPRP | 0.43
6 | RRIRDRPPRLPRPRPRPMMNPRP | -0.00862
7 | RRIRDRPPRLPRPRPRPMMRPRP | 0.763
8 | RRIRDRPPRLPRPRPRPMNEPRP | 0.202
9 | RRIRDRPPRLPRPRPRPMNLPRP | -0.1
10 | RRIRDRPPRLPRPRPRPMPSPRP | 0.026
11 | RRIRDRPPRLPRPRPRPMQWPRP | 0.0918
12 | RRIRDRPPRLPRPRPRPMRDPRP | 0.131
13 | RRIRDRPPRLPRPRPRPMRGPRP | 0.937
14 | RRIRDRPPRLPRPRPRPMRHPRP | 0.089
15 | RRIRDRPPRLPRPRPRPMRKPRP | 0.763
16 | RRIRDRPPRLPRPRPRPMRVPRP | 0.304
17 | RRIRDRPPRLPRPRPRPMSQPRP | -0.236
18 | RRIRDRPPRLPRPRPRPMTQPRP | 0.0403
19 | RRIRDRPPRLPRPRPRPMVAPRP | 0.00167
20 | RRIRDRPPRLPRPRPRPMVRPRP | 0.152
21 | RRIRDRPPRLPRPRPRPMWFPRP | 0.0563
22 | RRIRDRPPRLPRPRPRPMYYPRP | -0.535
23 | RRIRDRPPRLPRPRPRPNAKPRP | 0.128
24 | RRIRDRPPRLPRPRPRPNCFPRP | 0.156
25 | RRIRDRPPRLPRPRPRPNCIPRP | -0.00269
26 | RRIRDRPPRLPRPRPRPNCLPRP | 0.0835
27 | RRIRDRPPRLPRPRPRPNCVPRP | 0.0238
28 | RRIRDRPPRLPRPRPRPNDQPRP | -0.154

Row | Sequence | shrunken log2 fold change
29 | RRIRDRPPRLPRPRPRPNEFPRP | -0.0102
30 | RRIRDRPPRLPRPRPRPNEIPRP | -0.0208
31 | RRIRDRPPRLPRPRPRPNGLPRP | -0.0178
32 | RRIRDRPPRLPRPRPRPNGMPRP | -0.0609
33 | RRIRDRPPRLPRPRPRPNIKPRP | -0.384
34 | RRIRDRPPRLPRPRPRPNLFPRP | 0.0627
35 | RRIRDRPPRLPRPRPRPNMDPRP | -0.491
36 | RRIRDRPPRLPRPRPRPNMKPRP | 0.818
37 | RRIRDRPPRLPRPRPRPNMQPRP | -0.339
38 | RRIRDRPPRLPRPRPRPNMYPRP | -0.229
39 | RRIRDRPPRLPRPRPRPNNTPRP | -0.747
40 | RRIRDRPPRLPRPRPRPNRKPRP | -0.355
41 | RRIRDRPPRLPRPRPRPNRMPRP | -0.196
42 | RRIRDRPPRLPRPRPRPNSCPRP | 0.0563
43 | RRIRDRPPRLPRPRPRPNTVPRP | -0.364
44 | RRIRDRPPRLPRPRPRPNTYPRP | -0.127
45 | RRIRDRPPRLPRPRPRPNVEPRP | 0.119
46 | RRIRDRPPRLPRPRPRPNWGPRP | 0.061
47 | RRIRDRPPRLPRPRPRPNWVPRP | 0.0019
48 | RRIRDRPPRLPRPRPRPNYAPRP | -0.457
49 | RRIRDRPPRLPRPRPRPPAAPRP | 1.13
50 | RRIRDRPPRLPRPRPRPPAEPRP | 0.525
51 | RRIRDRPPRLPRPRPRPPATPRP | 0.75
52 | RRIRDRPPRLPRPRPRPPCAPRP | 0.371
53 | RRIRDRPPRLPRPRPRPPCYPRP | -0.0706
54 | RRIRDRPPRLPRPRPRPPECPRP | 0.0841
55 | RRIRDRPPRLPRPRPRPPFLPRP | 0.0487

Source: the supplement of paper PMC9112550, “Optimization of the antimicrobial peptide Bac7 by deep mutational scanning” (BMC Biology, 2022)
